The values that follow are results of earlier work, collected in paper PMC9747160.

The target in this series is APOBEC3B CTD (Homo sapiens) (UniProt Q9UH17). The series can be described thus: BLI.
Sequence of UniProt Q9UH17 (Q9UH17 187-382): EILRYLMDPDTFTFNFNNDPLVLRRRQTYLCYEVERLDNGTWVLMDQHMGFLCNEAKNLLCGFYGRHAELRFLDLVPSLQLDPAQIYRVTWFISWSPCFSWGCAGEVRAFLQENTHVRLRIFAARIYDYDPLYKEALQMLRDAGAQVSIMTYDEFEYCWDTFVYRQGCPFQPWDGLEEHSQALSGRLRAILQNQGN

Broadly, the Kd is the free concentration of one partner at which half of the binding sites on the other are occupied at equilibrium, for simple one-to-one binding. In the case of BORF2 (from UniProt P03190), the dissociation constant (Kd) was 1 nM.
